# According to patent EP4442276A1 (INSTITUT PASTEUR, dated 2024):
# B1: Cv2.3132 IgG antibody (antibody, V domains shown)
# VH: EVQLVESGGGLVKPGGSLRLSCAASGFTFSDYYMSWIRQAPGKGLEWVSYISSSGSVQYYADSVKGRFTISRDNAKNSLYLQMNSLRAEDTAVYYCARYYYDSSGYWKRLDYWGQGTLVTVSS
# VL: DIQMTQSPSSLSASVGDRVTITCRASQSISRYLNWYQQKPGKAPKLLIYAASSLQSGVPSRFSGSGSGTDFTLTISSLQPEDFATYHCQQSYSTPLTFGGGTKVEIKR
# notes: also called anti-HR2 antibody Cv2.3132
# Biological target: Spike of SARS-CoV-2 reference D614G strain (hCoV-19/France/GE1973/2020) (SARS-CoV-2, UniProt P0DTC2 14-1273)
# Test: cell-based or functional assay
binder,measurement,value
B1,"IC50, S-Fuse neutralization assay",35.4 µg/mL
